The labels stand for the following.
B1: protein 4.2 (natural protein, human (endogenous in erythrocytes), UniProt P16452 1-691, looked up)
chain: MGQALGIKSCDFQAARNNEEHHTKALSSRRLFVRRGQPFTIILYFRAPVRAFLPALKKVALTAQTGEQPSKINRTQATFPISSLGDRKWWSAVVEERDAQSWTISVTTPADAVIGHYSLLLQVSGRKQLLLGQFTLLFNPWNREDAVFLKNEAQRMEYLLNQNGLIYLGTADCIQAESWDFGQFEGDVIDLSLRLLSKDKQVEKWSQPVHVARVLGALLHFLKEQRVLPTPQTQATQEGALLNKRRGSVPILRQWLTGRGRPVYDGQAWVLAAVACTVLRCLGIPARVVTTFASAQGTGGRLLIDEYYNEEGLQNGEGQRGRIWIFQTSTECWMTRPALPQGYDGWQILHPSAPNGGGVLGSCDLVPVRAVKEGTLGLTPAVSDLFAAINASCVVWKCCEDGTLELTDSNTKYVGNNISTKGVGSDRCEDITQNYKYPEGSLQEKEVLERVEKEKMEREKDNGIRPPSLETASPLYLLLKAPSSLPLRGDAQISVTLVNHSEQEKAVQLAIGVQAVHYNGVLAAKLWRKKLHLTLSANLEKIITIGLFFSNFERNPPENTFLRLTAMATHSESNLSCFAQEDIAICRPHLAIKMPEKAEQYQPLTASVSLQNSLDAPMEDCVISILGRGLIHRERSYRFRSVWPENTMCAKFQFTPTHVGLQRLTVEVDCNMFQNLTNYKSVTVVAPELSA
modifications: N-terminal glycine myristoylated
B2: aquaporin-1 (natural protein, human (endogenous in erythrocytes), UniProt P29972 1-269, looked up)
chain: MASEFKKKLFWRAVVAEFLATTLFVFISIGSALGFKYPVGNNQTAVQDNVKVSLAFGLSIATLAQSVGHISGAHLNPAVTLGLLLSCQISIFRALMYIIAQCVGAIVATAILSGITSSLTGNSLGRNDLADGVNSGQGLGIEIIGTLQLVLCVLATTDRRRRDLGGSAPLAIGLSVALGHLLAIDYTGCGINPARSFGSAVITHNFSNHWIFWVGPFIGGALAVLIYDFILAPRSSDLTDRVKVWTSGQVEEYDLDADDINSRVEMKPK
modifications: lipid-like density attached to Cys-87, assigned as a palmitoylation site
B3: RhAG (natural protein, human (endogenous in erythrocytes), UniProt Q02094 1-409, looked up)
chain: MRFTFPLMAIVLEIAMIVLFGLFVEYETDQTVLEQLNITKPTDMGIFFELYPLFQDVHVMIFVGFGFLMTFLKKYGFSSVGINLLVAALGLQWGTIVQGILQSQGQKFNIGIKNMINADFSAATVLISFGAVLGKTSPTQMLIMTILEIVFFAHNEYLVSEIFKASDIGASMTIHAFGAYFGLAVAGILYRSGLRKGHENEESAYYSDLFAMIGTLFLWMFWPSFNSAIAEPGDKQCRAIVNTYFSLAACVLTAFAFSSLVEHRGKLNMVHIQNATLAGGVAVGTCADMAIHPFGSMIIGSIAGMVSVLGYKFLTPLFTTKLRIHDTCGVHNLHGLPGVVGGLAGIVAVAMGASNTSMAMQAAALGSSIGTAVVGGLMTGLILKLPLWGQPSDQNCYDDSVYWKVPKTR
B4: glycophorin A (natural protein, human (endogenous in erythrocytes), UniProt P02724 20-150, looked up)
chain: LSTTEVAMHTSTSSSVTKSYISSQTNDTHKRDTYAATPRAHEVSEISVRTVYPPEEETGERVQLAHHFSEPEITLIIFGVMAGVIGTILLISYGIRRLIKKSPSDVKPLPSPDTDVPLSSVEIENPETSDQ

What all share (experiment): cryo-EM structure
The target of data set [1] is T1, band 3 anion exchanger (human (endogenous in erythrocytes), UniProt P02730 1-911).
T1 sequence (looked up): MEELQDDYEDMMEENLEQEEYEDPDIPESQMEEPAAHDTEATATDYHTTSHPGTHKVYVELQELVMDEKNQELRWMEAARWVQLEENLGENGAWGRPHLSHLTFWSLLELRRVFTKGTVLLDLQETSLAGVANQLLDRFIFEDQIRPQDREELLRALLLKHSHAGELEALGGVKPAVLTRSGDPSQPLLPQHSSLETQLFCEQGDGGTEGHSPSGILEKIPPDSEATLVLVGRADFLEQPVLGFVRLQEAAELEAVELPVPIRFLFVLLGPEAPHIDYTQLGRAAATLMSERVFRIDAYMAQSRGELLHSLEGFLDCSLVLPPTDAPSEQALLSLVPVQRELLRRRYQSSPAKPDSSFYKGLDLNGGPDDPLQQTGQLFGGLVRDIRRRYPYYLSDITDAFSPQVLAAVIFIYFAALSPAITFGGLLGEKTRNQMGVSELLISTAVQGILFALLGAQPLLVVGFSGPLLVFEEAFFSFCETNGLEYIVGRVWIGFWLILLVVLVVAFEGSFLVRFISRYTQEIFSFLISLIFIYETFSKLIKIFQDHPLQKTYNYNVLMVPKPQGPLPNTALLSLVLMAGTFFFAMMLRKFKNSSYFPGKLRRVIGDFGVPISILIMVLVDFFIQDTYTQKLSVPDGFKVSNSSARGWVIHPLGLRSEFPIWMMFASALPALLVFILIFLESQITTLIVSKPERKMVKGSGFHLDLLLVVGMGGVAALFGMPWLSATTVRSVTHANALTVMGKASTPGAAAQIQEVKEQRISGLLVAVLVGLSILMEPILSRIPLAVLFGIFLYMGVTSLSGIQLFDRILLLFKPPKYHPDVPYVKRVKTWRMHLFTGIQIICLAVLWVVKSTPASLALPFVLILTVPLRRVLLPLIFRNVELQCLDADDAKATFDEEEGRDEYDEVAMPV

The target in the data set “protein 4.2” is B1.
In the next data set the target is T2, RhCE (human (endogenous in erythrocytes), UniProt P18577 1-417).
T2 sequence (looked up): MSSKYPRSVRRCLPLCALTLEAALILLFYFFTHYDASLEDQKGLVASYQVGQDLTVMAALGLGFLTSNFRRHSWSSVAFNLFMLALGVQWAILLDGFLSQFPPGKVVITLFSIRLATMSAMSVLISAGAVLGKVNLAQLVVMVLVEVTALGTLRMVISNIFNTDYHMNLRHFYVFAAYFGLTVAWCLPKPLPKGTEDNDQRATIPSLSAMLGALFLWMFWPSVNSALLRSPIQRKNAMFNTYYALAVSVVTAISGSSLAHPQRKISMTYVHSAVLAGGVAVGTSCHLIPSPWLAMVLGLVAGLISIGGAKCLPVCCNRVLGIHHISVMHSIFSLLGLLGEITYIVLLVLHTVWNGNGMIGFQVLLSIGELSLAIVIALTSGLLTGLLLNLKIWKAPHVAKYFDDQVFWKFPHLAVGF

The data set “cryo-EM structure” concerns the molecule itself.
Data set [2] deals with T1, band 3 anion exchanger. This is another data set of the same source.

On to B1, for which the binding result in the data set with band 3 anion exchanger [1] is “binds”.

Consider B2, for which, in the data set with protein 4.2, the binding result is listed as “binds”.

As for B3, in the data set with RhCE, the “stoichiometry N” value is 2 RhAG per RhCE. Further, in the data set “cryo-EM structure”, the binding result is “binds”.

As for B4, the “stoichiometry N” value with band 3 anion exchanger [2] was 1 GPA per band 3 protomer.

In general, stoichiometry N refers to the number of molecules, sites or subunits per partner or assembly.

The values are drawn from PMC10373098 (Nature structural & molecular biology, 2022).
